Experiments:
cMetECDHis (human) [1] = target: cMetECDHis (human) (UniProt P08581); experiment: cross-block ELISA; competitor 064
cMetECDHis (human) [2] = target: cMetECDHis (human) (UniProt P08581); experiment: cross-block ELISA; competitor 045
cMetECDHis (human) [3] = target: cMetECDHis (human) (UniProt P08581); experiment: cross-block ELISA; competitor 024
cMetECDHis (human) [4] = target: cMetECDHis (human) (UniProt P08581); experiment: cross-block ELISA; competitor 068
cMetECDHis (human) [5] = target: cMetECDHis (human) (UniProt P08581); experiment: cross-block ELISA; competitor 008
cMetECDHis (human) [6] = target: cMetECDHis (human) (UniProt P08581); experiment: cross-block ELISA; competitor G11-HZ
cMetECDHis (human) [7] = target: cMetECDHis (human) (UniProt P08581); experiment: cross-block ELISA; competitor 005
[8] = target: human c-Met, membrane-bound on cells (human) (UniProt P08581); experiment: flow cytometry on A431 cells (PE goat anti-human IgG); top panel
cMetECDHis (human) [9] = target: cMetECDHis (human) (UniProt P08581); experiment: cross-block ELISA; competitor 101
cMetECDHis (human) [10] = target: cMetECDHis (human) (UniProt P08581); experiment: cross-block ELISA; competitor 069
cMetECDHis (human) [11] = target: cMetECDHis (human) (UniProt P08581); experiment: cross-block ELISA; competitor 035
cMetECDHis (human) [12] = target: cMetECDHis (human) (UniProt P08581); experiment: cross-block ELISA; competitor 006
[13] = target: recombinant human c-Met extracellular domain (R&D systems) (human) (UniProt P08581); experiment: competition ELISA, residual Europium-HGF signal at 615 nm at the lower plateau of the fit; sheet prints no competing mAb ~66000, no HGF-Europium ~600; upper panel
cMetECDHis (human) [14] = target: cMetECDHis (human) (UniProt P08581); experiment: cross-block ELISA; competitor 098
cMetECDHis (human) [15] = target: cMetECDHis (human) (UniProt P08581); experiment: BLI (Octet); antibody captured, cMetECDHis in solution
cMetECDHis (human) [16] = target: cMetECDHis (human) (UniProt P08581); experiment: cross-block ELISA; competitor 5D5
cMetECDHis (human) [17] = target: cMetECDHis (human) (UniProt P08581); experiment: cross-block ELISA; competitor 062
cMetECDHis (human) [18] = target: cMetECDHis (human) (UniProt P08581); experiment: cross-block ELISA; competitor 022
cMetECDHis (human) [19] = target: cMetECDHis (human) (UniProt P08581); experiment: cross-block ELISA; competitor 058
cMetECDHis (human) [20] = target: cMetECDHis (human) (UniProt P08581); experiment: cross-block ELISA; competitor 181
[21] = target: recombinant human c-Met extracellular domain (R&D systems) (human) (UniProt P08581); experiment: competition ELISA on coated recombinant c-Met extracellular domain; blocked ligand Europium-conjugated HGF; column headed EC50 on the sheet, called IC50 in paragraph 270; upper panel
cMetSEMA-567His8 (human) = cMetSEMA-567His8 (human) (UniProt P08581); experiment: TR-FRET; displacement of AlexaFluor-647-HGF from cMetSEMA-567His8

Question: Which residual binding, % of no competitor (cMetECDHis (human) [1]) does the source give for IgG1-5D5 (antibody) here?
Answer: 97.1%

Question: And the residual binding, % of no competitor (cMetECDHis (human) [2])?
Answer: 83.9%

Question: And the residual binding, % of no competitor (cMetECDHis (human) [3])?
Answer: 94.2%

Question: What about the residual binding, % of no competitor (cMetECDHis (human) [4]) of the same substance?
Answer: 97.8%

Question: What about the residual binding, % of no competitor (cMetECDHis (human) [5]) of the same substance?
Answer: 90.2%

Question: What about the residual binding, % of no competitor (cMetECDHis (human) [6]) of the same substance?
Answer: 97.3%

Question: What about the residual binding, % of no competitor (cMetECDHis (human) [7]) of the same substance?
Answer: 42.3%

Question: And the EC50 [8]?
Answer: 0.531 nM

Question: And the residual binding, % of no competitor (cMetECDHis (human) [9])?
Answer: 97.9%

Question: What about the residual binding, % of no competitor (cMetECDHis (human) [10]) of the same substance?
Answer: 99.6%

Question: And the residual binding, % of no competitor (cMetECDHis (human) [11])?
Answer: 98.1%

Question: What about the residual binding, % of no competitor (cMetECDHis (human) [12]) of the same substance?
Answer: 58.8%

Question: And the Bottom [13]?
Answer: 6350 RFU

Question: What about the residual binding, % of no competitor (cMetECDHis (human) [14]) of the same substance?
Answer: 97.6%

Question: What about the Kd (cMetECDHis (human) [15]) of the same substance?
Answer: 5.86 nM

Question: And the koff (cMetECDHis (human) [15])?
Answer: 0.00125 s⁻¹

Question: And the kon (cMetECDHis (human) [15])?
Answer: 214000 M⁻¹ s⁻¹

Question: And the residual binding, % of no competitor (cMetECDHis (human) [16])?
Answer: 4.1%

Question: And the residual binding, % of no competitor (cMetECDHis (human) [17])?
Answer: 97.6%

Question: What about the residual binding, % of no competitor (cMetECDHis (human) [18]) of the same substance?
Answer: 12.4%

Question: What about the residual binding, % of no competitor (cMetECDHis (human) [19]) of the same substance?
Answer: 6.6%

Question: And the residual binding, % of no competitor (cMetECDHis (human) [20])?
Answer: 103%

Question: And the IC50 [21]?
Answer: 0.0244 µg/mL

Question: What about the % inhibition (cMetSEMA-567His8 (human)) of the same substance?
Answer: 95%

Question: What about the IC50 (cMetSEMA-567His8 (human)) of the same substance?
Answer: 0.2 µg/mL

Question: How did the EC50 [8] turn out when IgG4-5D5 (antibody) was run?
Answer: 0.966 nM
